Values of other authors as cited in article PMC9456187, “The Ambivalence of Connexin43 Gap Peptides in Cardioprotection of the Isolated Heart against Ischemic Injury” (International Journal of Molecular Sciences, 2022).

Tested on: isolated subsarcolemmal mitochondria, calcium-induced mitochondrial permeability transition
Details: rat heart, Gap27 at substantially higher concentrations than in present study, ref [34]
Description: The detailed mechanisms behind IPC are still debated, but multiple studies confirm that mitochondria play a crucial role in the observed infarct size limitation. IPC promotes translocation of signaling kinases to mitochondria, changes volume regulation of mitochondria, opens mitochondrial potassium channels and delays ROS-induced mitochondrial permeability transition. Connexin43 can be detected in subsarcolemmal mitochondria using immunoblotting of extracts from isolated mitochondria. The role of connexin43 in mitochondria has recently been reviewed ...

B1: Fibroblast growth factor 2: Fibroblast growth factor 2 triggers the protection of rat heart mitochondria (protein, UniProt P13109 10-154, looked up)
Fibroblast growth factor 2: PALPEDGGGAFPPGHFKDPKRLYCKNGGFFLRIHPDGRVDGVREKSDPHVKLQLQAEERGVVSIKGVCANRYLAMKEDGRLLASKCVTEECFFFERLESNNYNTYRSRKYSSWYVALKRTGQYKLGSKTGPGQKAILFLPMSAKS
Effect on (FGF2-induced) protection of mitochondria against calcium-induced permeability transition (in words): triggers the protection of rat heart mitochondria
